In publication PMC8513623:
pKd: −log10 of the molar value.

How the values were obtained:
[1] = molecular target: Full-length zebrafish Cavin4b (Cavin4b-FL), His-ubiquitin tagged (zebrafish) (UniProt Q5PQY9); assay: ITC
[2] = molecular target: Bin1b SH3 domain (zebrafish), N-terminally His-tagged (zebrafish); assay: ITC

Substance	pKd [1]	pKd [2]
Bin1b SH3 domain (zebrafish), N-terminally His-tagged (domain or fragment)	4.25	–
Cavin4b PRD peptide (zebrafish Cavin4b proline-rich peptide) (from UniProt Q5PQY9 271-286)	–	4.21
Chikungunya virus (CHIKV) proline-rich peptide	–	7.05
